Results taken from PMC11194072, “Cdc13 exhibits dynamic DNA strand exchange in the presence of telomeric DNA”.

Legend:
Cdc13 full-length (Sf9) [1] = molecular target: T1, Cdc13 full-length (Sf9) (Saccharomyces cerevisiae, UniProt P32797 1-924); test: competition; EC50; prebound IR700-Tel30G 2 nM; 25 mM HEPES pH 8.0, 5% glycerol, 50 mM NaOAc, 150 mM NaCl, 7.5 mM MgCl2, 0.01% Tween 20; EMSA/DDE at 30°C; BLI without glycerol at ~23°C; details: protein: recombinant; tags: N-terminal SUMO-His6 tag, C-terminal FLAG tag; chain copies: 2; single strand
T1 sequence: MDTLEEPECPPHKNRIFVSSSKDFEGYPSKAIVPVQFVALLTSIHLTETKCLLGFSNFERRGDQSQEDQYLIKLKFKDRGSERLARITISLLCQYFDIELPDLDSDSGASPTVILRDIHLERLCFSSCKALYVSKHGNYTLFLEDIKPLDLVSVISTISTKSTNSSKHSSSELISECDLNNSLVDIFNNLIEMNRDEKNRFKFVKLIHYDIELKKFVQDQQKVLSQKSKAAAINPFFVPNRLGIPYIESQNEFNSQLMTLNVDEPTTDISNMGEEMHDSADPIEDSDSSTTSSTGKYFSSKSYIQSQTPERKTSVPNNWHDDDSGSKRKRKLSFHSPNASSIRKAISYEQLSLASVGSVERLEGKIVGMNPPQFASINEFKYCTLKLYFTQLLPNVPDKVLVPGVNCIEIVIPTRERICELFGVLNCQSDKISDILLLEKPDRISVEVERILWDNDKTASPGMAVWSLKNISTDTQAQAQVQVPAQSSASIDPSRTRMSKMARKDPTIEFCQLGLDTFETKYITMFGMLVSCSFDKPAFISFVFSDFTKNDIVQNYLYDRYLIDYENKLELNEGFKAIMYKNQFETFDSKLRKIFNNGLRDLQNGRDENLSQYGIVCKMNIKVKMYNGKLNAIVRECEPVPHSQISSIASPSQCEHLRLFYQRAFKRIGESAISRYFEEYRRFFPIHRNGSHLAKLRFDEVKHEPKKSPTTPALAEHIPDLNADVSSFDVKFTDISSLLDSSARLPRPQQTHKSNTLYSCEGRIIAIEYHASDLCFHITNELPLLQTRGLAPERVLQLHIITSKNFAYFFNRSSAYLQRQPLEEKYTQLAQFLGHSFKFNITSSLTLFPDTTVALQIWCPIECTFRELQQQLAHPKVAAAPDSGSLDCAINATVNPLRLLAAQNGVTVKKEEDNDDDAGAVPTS

Cdc13 full-length (Sf9) [2] = molecular target: T1, Cdc13 full-length (Sf9); test: EMSA; 2 nM fork; 25 mM HEPES pH 8.0, 5% glycerol, 50 mM NaOAc, 150 mM NaCl, 7.5 mM MgCl2, 0.01% Tween 20; EMSA/DDE at 30°C; BLI without glycerol at ~23°C; details: protein: recombinant; tags: N-terminal SUMO-His6 tag, C-terminal FLAG tag; chain copies: 2; fork 1:2, 20 bp duplex, two 25-nt ssDNA arms
[3] = molecular target: T2, RPA heterotrimer (Rfa1-3) (Saccharomyces cerevisiae, UniProt P22336;P26754;P26755 1-621;1-273;1-122); test: as above; details: protein: recombinant; tags: untagged; copies: 1;1;1; fork 1:2, 20 bp duplex, two 25-nt ssDNA arms
[4] = molecular target: T2, RPA heterotrimer (Rfa1-3); test: competition; EC50; prebound labelled Tel30G; 25 mM HEPES pH 8.0, 5% glycerol, 50 mM NaOAc, 150 mM NaCl, 7.5 mM MgCl2, 0.01% Tween 20; EMSA/DDE at 30°C; BLI without glycerol at ~23°C; details: protein: recombinant; tags: untagged; copies: 1;1;1; single strand
[5] = molecular target: T2, RPA heterotrimer (Rfa1-3); test: competition; EC50; prebound labelled Poly(dT)30; 25 mM HEPES pH 8.0, 5% glycerol, 50 mM NaOAc, 150 mM NaCl, 7.5 mM MgCl2, 0.01% Tween 20; EMSA/DDE at 30°C; BLI without glycerol at ~23°C; details: protein: recombinant; tags: untagged; copies: 1;1;1; single strand
Cdc13 full-length (Sf9) [6] = molecular target: T1, Cdc13 full-length (Sf9); test: EMSA; 2 nM probe; near probe concentration, not a reliable Kd; 25 mM HEPES pH 8.0, 5% glycerol, 50 mM NaOAc, 150 mM NaCl, 7.5 mM MgCl2, 0.01% Tween 20; EMSA/DDE at 30°C; BLI without glycerol at ~23°C; details: protein: recombinant; tags: N-terminal SUMO-His6 tag, C-terminal FLAG tag; chain copies: 2; label: 5' IRDye700 or IRDye800; single strand
Cdc13 OB1 = molecular target: T3, Cdc13 OB1 (Saccharomyces cerevisiae, UniProt P32797 1-230); test: EMSA; 7.8-1000 nM OB1; 25 mM HEPES pH 8.0, 5% glycerol, 50 mM NaOAc, 150 mM NaCl, 7.5 mM MgCl2, 0.01% Tween 20; EMSA/DDE at 30°C; BLI without glycerol at ~23°C; details: protein: recombinant; tags: N-terminal His6-SUMO, C-terminal 3xFLAG; chain copies: 2; label: 5' IRDye700 or IRDye800; single strand
T3 sequence: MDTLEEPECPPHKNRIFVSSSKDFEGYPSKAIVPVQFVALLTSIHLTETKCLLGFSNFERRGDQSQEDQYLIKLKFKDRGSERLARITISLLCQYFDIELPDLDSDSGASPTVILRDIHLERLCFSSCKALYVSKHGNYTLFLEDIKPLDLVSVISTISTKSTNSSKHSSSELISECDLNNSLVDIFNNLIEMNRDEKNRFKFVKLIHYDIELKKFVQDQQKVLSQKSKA

[7] = molecular target: T2, RPA heterotrimer (Rfa1-3); test: EMSA; 2 nM probe; 25 mM HEPES pH 8.0, 5% glycerol, 50 mM NaOAc, 150 mM NaCl, 7.5 mM MgCl2, 0.01% Tween 20; EMSA/DDE at 30°C; BLI without glycerol at ~23°C; details: protein: recombinant, tags: untagged, copies: 1;1;1, single strand
Cdc13 full-length (Sf9) [8] = molecular target: T1, Cdc13 full-length (Sf9); test: EMSA; IR700-Tel50G prebound; 25 mM HEPES pH 8.0, 5% glycerol, 50 mM NaOAc, 150 mM NaCl, 7.5 mM MgCl2, 0.01% Tween 20; EMSA/DDE at 30°C; BLI without glycerol at ~23°C; details: protein: recombinant; tags: N-terminal SUMO-His6 tag, C-terminal FLAG tag; chain copies: 2; label: 5' IRDye700; single strand
Cdc13 full-length (Sf9) [9] = molecular target: T1, Cdc13 full-length (Sf9); test: competition; prebound IR700-Tel11G, unlabelled Tel11G competes; EC50 only in figure; 25 mM HEPES pH 8.0, 5% glycerol, 50 mM NaOAc, 150 mM NaCl, 7.5 mM MgCl2, 0.01% Tween 20; EMSA/DDE at 30°C; BLI without glycerol at ~23°C; details: protein: recombinant; tags: N-terminal SUMO-His6 tag, C-terminal FLAG tag; chain copies: 2; label: none, or 5' IRDye700; single strand
[10] = molecular target: T4, Cdc13 full-length (E. coli) (Saccharomyces cerevisiae, UniProt P32797 1-924); test: as above; details: protein: recombinant; tags: N-terminal His6-SUMO, C-terminal 3xFLAG; chain copies: 2; label: none, or 5' IRDye700; single strand
T4 sequence: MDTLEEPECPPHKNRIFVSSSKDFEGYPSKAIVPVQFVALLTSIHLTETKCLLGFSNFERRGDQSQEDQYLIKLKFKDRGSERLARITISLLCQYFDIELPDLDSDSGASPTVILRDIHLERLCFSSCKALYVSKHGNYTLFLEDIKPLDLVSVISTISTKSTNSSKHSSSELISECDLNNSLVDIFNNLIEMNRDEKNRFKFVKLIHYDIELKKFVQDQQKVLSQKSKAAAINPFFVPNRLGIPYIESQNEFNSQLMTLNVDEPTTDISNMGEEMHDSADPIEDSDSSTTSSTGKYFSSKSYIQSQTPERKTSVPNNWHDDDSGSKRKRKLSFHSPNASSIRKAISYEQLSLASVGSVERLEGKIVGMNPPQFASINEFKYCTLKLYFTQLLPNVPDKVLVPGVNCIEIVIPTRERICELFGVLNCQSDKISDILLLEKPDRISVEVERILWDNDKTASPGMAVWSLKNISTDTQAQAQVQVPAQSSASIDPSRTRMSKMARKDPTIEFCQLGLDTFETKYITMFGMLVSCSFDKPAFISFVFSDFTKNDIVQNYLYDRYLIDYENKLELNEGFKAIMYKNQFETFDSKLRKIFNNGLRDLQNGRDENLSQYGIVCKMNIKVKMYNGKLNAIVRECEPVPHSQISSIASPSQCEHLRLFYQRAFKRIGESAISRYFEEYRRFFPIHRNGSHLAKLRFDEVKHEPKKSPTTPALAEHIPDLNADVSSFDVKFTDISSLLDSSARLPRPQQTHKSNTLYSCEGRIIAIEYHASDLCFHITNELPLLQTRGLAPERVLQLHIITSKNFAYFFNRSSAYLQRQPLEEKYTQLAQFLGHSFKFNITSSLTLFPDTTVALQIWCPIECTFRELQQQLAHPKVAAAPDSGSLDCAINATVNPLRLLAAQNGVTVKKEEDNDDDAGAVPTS

Cdc13 OB3 (DBD) = molecular target: T5, Cdc13 OB3 (DBD) (Saccharomyces cerevisiae, UniProt P32797 497-694); test: EMSA; 7.5 nM OB3, 2 nM IR700-Tel11G; complex stable to 0.4-50 nM unlabelled Tel11G; 25 mM HEPES pH 8.0, 5% glycerol, 50 mM NaOAc, 150 mM NaCl, 7.5 mM MgCl2, 0.01% Tween 20; EMSA/DDE at 30°C; BLI without glycerol at ~23°C; details: protein: recombinant; tags: N-terminal His6; label: none, or 5' IRDye700; single strand
T5 sequence: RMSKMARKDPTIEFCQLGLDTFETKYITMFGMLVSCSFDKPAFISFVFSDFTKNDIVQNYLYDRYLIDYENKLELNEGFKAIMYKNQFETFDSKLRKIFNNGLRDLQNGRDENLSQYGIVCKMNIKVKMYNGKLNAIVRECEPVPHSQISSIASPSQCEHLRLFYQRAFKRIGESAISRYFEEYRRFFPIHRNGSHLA

[11] = molecular target: T2, RPA heterotrimer (Rfa1-3); test: competition; EC50; prebound labelled Poly(dT)30; text also gives 15 nM; 25 mM HEPES pH 8.0, 5% glycerol, 50 mM NaOAc, 150 mM NaCl, 7.5 mM MgCl2, 0.01% Tween 20; EMSA/DDE at 30°C; BLI without glycerol at ~23°C; details: protein: recombinant; tags: untagged; copies: 1;1;1; label: none, or 5' IRDye700/800; single strand
Cdc13 full-length (Sf9) [12] = molecular target: T1, Cdc13 full-length (Sf9); test: EMSA; 2 nM probe; 25 mM HEPES pH 8.0, 5% glycerol, 50 mM NaOAc, 150 mM NaCl, 7.5 mM MgCl2, 0.01% Tween 20; EMSA/DDE at 30°C; BLI without glycerol at ~23°C; details: protein: recombinant; tags: N-terminal SUMO-His6 tag, C-terminal FLAG tag; chain copies: 2; label: none, or 5' IRDye700/800; single strand

T2 sequence (P22336 whole entry, chain 1 of 3): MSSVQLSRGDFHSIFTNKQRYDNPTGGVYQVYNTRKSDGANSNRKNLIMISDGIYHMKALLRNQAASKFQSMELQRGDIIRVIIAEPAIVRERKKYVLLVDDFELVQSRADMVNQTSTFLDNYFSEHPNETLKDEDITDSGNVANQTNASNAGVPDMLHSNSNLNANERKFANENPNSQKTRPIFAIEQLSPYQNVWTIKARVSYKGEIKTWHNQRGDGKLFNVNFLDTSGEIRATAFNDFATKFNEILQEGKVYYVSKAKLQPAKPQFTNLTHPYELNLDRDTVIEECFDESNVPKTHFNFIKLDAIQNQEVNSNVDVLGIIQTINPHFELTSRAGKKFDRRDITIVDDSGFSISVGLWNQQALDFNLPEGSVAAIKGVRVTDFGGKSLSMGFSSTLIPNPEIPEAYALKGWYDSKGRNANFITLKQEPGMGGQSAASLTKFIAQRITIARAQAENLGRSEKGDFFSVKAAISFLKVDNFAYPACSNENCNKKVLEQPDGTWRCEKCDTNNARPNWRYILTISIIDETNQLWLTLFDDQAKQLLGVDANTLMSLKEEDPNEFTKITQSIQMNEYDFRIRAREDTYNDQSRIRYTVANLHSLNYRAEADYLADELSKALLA
T2 sequence (P26754 whole entry, chain 2 of 3): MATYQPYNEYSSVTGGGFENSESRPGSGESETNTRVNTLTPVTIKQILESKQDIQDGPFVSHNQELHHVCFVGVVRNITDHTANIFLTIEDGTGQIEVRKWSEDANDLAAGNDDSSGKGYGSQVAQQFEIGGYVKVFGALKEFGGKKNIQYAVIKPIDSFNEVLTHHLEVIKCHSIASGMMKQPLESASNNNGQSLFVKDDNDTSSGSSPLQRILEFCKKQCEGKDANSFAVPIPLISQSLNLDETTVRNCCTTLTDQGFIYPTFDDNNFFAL
T2 sequence (P26755 whole entry, chain 3 of 3): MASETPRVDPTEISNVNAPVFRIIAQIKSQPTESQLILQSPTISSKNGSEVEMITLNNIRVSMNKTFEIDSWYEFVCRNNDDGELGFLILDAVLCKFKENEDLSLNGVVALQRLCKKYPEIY

For GTGTGGGTGTGGTGTGGGTGTGGTGTGGGTGTGTGGGTGTGGTGTGGGTG (ssDNA) [Tel50G unlabelled (MB1117)], the IC50 (Cdc13 full-length (Sf9) [1]) was 0.96 nM.

B1: Tel25G fork (MB1169/MB1170) (mixed)
DNA 1: GGTGTGGTGTGGGTGTGGTGTGGGTGTGTCACTCACATAGCGTTC
DNA 2: GAACGCTATGTGAGTGACACTGGGTGTGGTGTGGGTGTGGTGTGG
In the case of B1, the “apparent K (half saturation)” value (Cdc13 full-length (Sf9) [2]) is reported as 3.3 ± 0.5 nM and the “apparent K (half saturation)” value [3] is reported as 2.5 ± 0.6 nM.

Binder GTGTGGGTGTGGTGTGGGTGTGGTGTGGGT (ssDNA) [Tel30G unlabelled (MB915)] has an IC50 [4] of 5.44 nM, an IC50 [5] of 5.1 nM and an IC50 (Cdc13 full-length (Sf9) [1]) of 0.89 nM.

In the case of CGCCATGCTGATCCGTGTGGTGTGTGTGGG (ssDNA) [Tel30G labelled (MB1930 IR700 / MB1981 IR800)], the “apparent K (half saturation)” value (Cdc13 full-length (Sf9) [6]) is reported as 3.7 ± 0.3 nM, the “apparent K (half saturation)” value (Cdc13 OB1) is reported as 830 nM and the “apparent K (half saturation)” value ([7]; label: 5' IRDye700 or IRDye800) is reported as 2.4 ± 0.5 nM.

GTGTGGGTGTGGTGTGGGTGTGGTGTGGGTGTGTGGTGTGGTGTGTGTG (ssDNA) [IR700-Tel50G (MB1931)]: binds (Cdc13 full-length (Sf9) [8]).

GTGTGGGTGTG (ssDNA) [Tel11G (MB1983 / MB2018 IR700)]: binds (Cdc13 full-length (Sf9) [9]); binds [10]; binds (Cdc13 OB3 (DBD)).

For TTTTTTTTTTTTTTTTTTTTTTTTTTTTTT (ssDNA) [Poly(dT)30 (MB464 / MB1755 IR700 / MB1982 IR800)], the IC50 [11] was 15.1 nM, the “apparent K (half saturation)” value (Cdc13 full-length (Sf9) [12]) was 26 ± 3 nM and the “apparent K (half saturation)” value ([7]; label: none, or 5' IRDye700/800) was 7 ± 0.5 nM.
